A word on the EC50: it is the concentration that produces a half-maximal response. The term Kd denotes the equilibrium constant for the complex coming apart.

The values below come from US20240043568A1 (KEYMED BIOSCIENCES, published 2024).

In test [1] the target is T1, cynomolgus monkey GPC3 on CHO cells (cynomolgus monkey, UniProt A0A2K5VK50 24-579).
T1 construct: whole, on cells; also called CHO-cynoGPC3 (clone 4D6); CHO-cynomolgus monkey GPC3
Nature of the test: flow cytometry, CHO-cynomolgus monkey GPC3 cells. The protocol: (§1) CHO-human GPC3 and CHO-cynomolgus monkey GPC3 stably-transfected cells in the logarithmic growth phase were taken, adjusted to 5×10⁵ cells/ml using 4% calf serum (Hyclone, SH30626.06), and added to a 96-well U-shaped plate at 100 μl/well cell suspension. The centrifugation was performed at 300 g for 5 min. The supernatant was discarded. 100 μL of gradient diluted antibody (initial concentration: 1800 nM, 3-fold dilution, 10 gradients) was added to each well, and incubated at 4° C. for 60 min. The secondary antibody Alexa Fluro647 labeled goat anti-human IgG Fc (1:300 dilution) was added at 50 μL/well and incubated on ice for 20 min. After washing once, propidium iodide solution (1:300) was added at 50 μL/well. Incubation was performed for 5 min before detection by flow cytometry.
On the technique in general: Flow cytometry measures light scatter and fluorescence of single cells or particles in a stream.

Test [2] addresses T2, human CD3 on T cells (human, UniProt P07766 23-207).
T2 construct: whole, on cells; The target is the native CD3 complex on cells; The recombinant antigen used elsewhere is the εγ heterodimer; also called CD3 on Jurkat cells; CD3 on human peripheral blood CD4+ and CD8+ T cells
Description: flow cytometry, human peripheral blood CD4+ T cells. The protocol:
Fresh human peripheral blood was taken and PBMCs were isolated by Ficoll-Paque Plus (GE, 17-1440-03). The PBMCs were adjusted to 5×10⁵ cells/mL with 4% calf serum (Hyclone, SH30626.06), and added to a 96-well U-plate at 100 μL/well. The centrifuged supernatant was discarded. 100 μL of gradient diluted antibody (initial concentration: 1800 nM, 3-fold dilution, 11 gradients) was added to each well and incubated at 4° C. for 60 minutes. The secondary antibody Alexa Fluro647 labeled goat anti-human IgG Fc (1:300 dilution) was added at 50 μL/well and incubated on an ice bath for 20 min. After washing once, PI solution was added at 50 μL/well. Incubation was performed for 5 min before detection by flow cytometry (BD Celesta). The GPC3×CD3κλ bispecific antibody can bind to the human peripheral blood T cell with low affinity.

Test [3] addresses T2, human CD3 on T cells. Description: flow cytometry, Jurkat cells. The procedure: Jurkat cells in the logarithmic growth phase were taken, added with 200 μg/mL of murine IgG (Jackson ImmunoResearch, 115-005-03), and incubated on ice for 30 minutes. The cells were adjusted to 5×10⁵ cells/mL with 4% calf serum and added to a 96-well U-shaped plate at 100 μl/well. The centrifugation was performed at 300 g. The supernatant was discarded. 100 μL of gradient diluted antibody (initial concentration: 1800 nM, 3-fold dilution, 10 gradients) was added to each well, and incubated at 4° C. for 60 min. The secondary antibody Alexa Fluro647 labeled goat anti-human IgG Fc (1:300 dilution) was added at 50 μL/well and incubated on ice for 20 min. After washing once, PI solution was added at 50 μL/well. Incubation was performed for 5 min before detection by flow cytometry (BD C6).

The target in a further test is T3, human GPC3 on cells (human, UniProt P51654 25-563).
T3 construct: whole, on cells; One molecule is used for both CHO-hGPC3 transfectants and GPC3+ HepG2 cells; The assay field names the cell; also called CHO-hGPC3 (clone 2B10); CHO-human GPC3
Description: flow cytometry, CHO-human GPC3 cells. The protocol:
as §1

Test [4] concerns the target T4, cynomolgus monkey CD3εγ-Fc heterodimer (cynomolgus monkey).
T4 construct: also called monkey CD3 εγ protein
T4 chain 1: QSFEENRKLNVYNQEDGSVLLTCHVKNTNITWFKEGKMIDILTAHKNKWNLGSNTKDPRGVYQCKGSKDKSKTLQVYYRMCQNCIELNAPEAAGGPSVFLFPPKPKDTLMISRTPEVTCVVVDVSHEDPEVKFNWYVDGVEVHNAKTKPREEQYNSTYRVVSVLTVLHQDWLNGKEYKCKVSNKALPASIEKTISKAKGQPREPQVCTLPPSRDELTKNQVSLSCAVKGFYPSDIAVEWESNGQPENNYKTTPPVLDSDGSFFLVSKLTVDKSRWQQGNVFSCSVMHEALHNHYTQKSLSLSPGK
T4 chain 2: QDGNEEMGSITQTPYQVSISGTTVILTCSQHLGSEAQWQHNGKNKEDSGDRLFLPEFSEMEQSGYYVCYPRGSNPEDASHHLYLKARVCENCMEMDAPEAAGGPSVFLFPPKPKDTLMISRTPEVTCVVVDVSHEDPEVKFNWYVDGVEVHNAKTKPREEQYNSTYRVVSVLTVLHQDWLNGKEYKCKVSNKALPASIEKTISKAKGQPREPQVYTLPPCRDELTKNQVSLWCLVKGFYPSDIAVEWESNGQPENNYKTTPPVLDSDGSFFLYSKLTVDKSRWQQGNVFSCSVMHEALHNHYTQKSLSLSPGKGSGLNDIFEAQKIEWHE
Nature of the test: SPR (Biacore T200), CD3εγ amine-coupled to the chip, antibody as analyte. The procedure: Human or monkey CD3 εγ recombinant antigen at 10 μg/mL was bound to a CMS chip (GE healthcare) by amino coupling, and the antigen binding capacity was controlled to approximately 200 RU. After the baseline was stable, gradient diluted antibodies (initially with 10 μg/mL, 2-fold dilution, 7 gradients) were flowed through the chip at a flow rate of 30 μL/min, with an association time of 350 seconds and a dissociation time of 600 seconds. The kinetic constants were obtained by fitting with 1:1 binding model using Biacore T200 evaluation software.
(In general: SPR reads the build-up and loss of mass on a sensor chip optically.)

In test [5] the target is T5, FcγRIIIAV158 with His tag (UniProt P08637 17-208).
T5 construct: Bought protein; also called FcγRIIIAV158 (Sino Biological #10389-H08H1)
Description: SPR, His-tagged FcγRIIIAV158 captured by anti-His antibody on the chip, antibody as analyte [row FcγRIIIAV158, column GPC3×CD3 κλ003]. The procedure:
50 μg/mL His-Tag antibodies were conjugated to a CMS chip through amino groups, and recombinant proteins FcγRI, FcγRIIAH131, and FcγRIIIAV158 with His tags (Sino Biological, #10256-H08H/10374-H08H1/10389-H08H1) were respectively captured for a capture time of 40 s at a flow rate of 10 μL/min. After the baseline was stable, the gradient-diluted antibody (the initial concentration of 37.5 μg/mL, 2-fold dilution) flowed through the chip at a flow rate of 30 μL/min, with a binding time of 120 s and a dissociation time of 200 s. The affinity constants were obtained by fitting them with Biacore evaluation software. It can be seen from FIG. 22 that the GPC3×CD3κλ bispecific antibody has no binding to FcγRI, FcγRIIAH131, and FcγRIIIAV158; The wild-type IgG4 control antibody can bind to FcγRI with high affinity and weakly bind to Fcγ RIIAH131.

T5 sequence (P08637 17-208 F176V limits assumed): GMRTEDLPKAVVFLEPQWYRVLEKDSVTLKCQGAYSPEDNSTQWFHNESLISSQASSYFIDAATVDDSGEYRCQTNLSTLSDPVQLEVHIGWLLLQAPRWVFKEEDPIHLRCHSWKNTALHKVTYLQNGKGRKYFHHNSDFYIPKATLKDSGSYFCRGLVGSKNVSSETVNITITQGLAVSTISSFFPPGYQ

B1: GPC3×CD3 κλ002 (bispecific antibody, human IgG4 S228P, kappa, lambda)
light 1: DVVMTQSPLSLPVTPGEPASISCRSSQSIVHSNGNTYLEWYLKKPGQSPQLLIYKVSNRFSGVPDRFSGSGSGTDFTLKISRVEAEDVGVYFCLQVTHVPLTFGQGTKLEIKRTVAAPSVFIFPPSDEQLKSGTASVVCLLNNFYPREAKVQWKVDNALQSGNSQESVTEQDSKDSTYSLSSTLTLSKADYEKHKVYACEVTHQGLSSPVTKSFNRGEC
heavy 1: QVQLVQSGAEVKKPGSSVKVSCKASGYTFADYEIHWVREAPGQGLEWMGAIHPGSGGTAYAQKFQGRVTLTADESSTTAYMELSSLRSEDTAVYYCTRYYSFAYWGQGTLVTVSSASTKGPSVFPLAPCSRSTSESTAALGCLVKDYFPEPVTVSWNSGALTSGVHTFPAVLQSSGLYSLSSVVTVPSSSLGTKTYTCNVDHKPSNTKVDKRVESKYGPPCPPCPAPEFEGGPSVFLFPPKPKDTLMISRTPEVTCVVVDVSQEDPEVQFNWYVDGVEVHNAKTKPREEQFNSTYRVVSVLTVLHQDWLNGKEYKCKVSNKGLASSIEKTISKAKGQPREPQVCTLPPSQEEMTKNQVSLSCAVKGFYPSDIAVEWESNGQPENNYKTTPPVLDSDGSFFLVSKLTVDKSRWQEGNVFSCSVMHEALHNHYTQKSLSLSLGK
light 2: QAVVTQEPSLTVSPGGTVTLTCRSSTGAVTTSNYANWVQEKPGQAPRGLIGGTNKRAPWTPARFSGSLLGGKAALTITGAQAEDEAEYYCVLWYSNLWVFGGGTKLTVLGQPKAAPSVTLFPPSSEELQANKATLVCLISDFYPGAVTVAWKADSSPVKAGVETTTPSKQSNNKYAASSYLSLTPEQWKSHRSYSCQVTHEGSTVEKTVAPTECS
heavy 2: EVQLVESGGGLVQPGGSLRLSCAASGFTFNTYAMNWVRKAPGKGLEWVGRIRSKYNNYATYYADSVKDRFTISRDDSKNSLYLQMNSLKTEDTAVYYCVRHGNFGNSYVSWFAYWGQGTLVTVSSASTKGPSVFPLAPCSRSTSESTAALGCLVKDYFPEPVTVSWNSGALTSGVHTFPAVLQSSGLYSLSSVVTVPSSSLGTKTYTCNVDHKPSNTKVDKRVESKYGPPCPPCPAPEFEGGPSVFLFPPKPKDTLMISRTPEVTCVVVDVSQEDPEVQFNWYVDGVEVHNAKTKPREEQFNSTYRVVSVLTVLHQDWLNGKEYKCKVSNKGLASSIEKTISKAKGQPREPQVYTLPPCQEEMTKNQVSLWCLVKGFYPSDIAVEWESNGQPENNYKTTPPVLDSDGSFFLYSKLTVDKSRWQEGNVFSCSVMHEALHNHYTQKSLSLSLGK
notes: also called GPC3 x CD3 κλ002; GPC3×CD3κλ bispecific antibody
Take B1: the concentration for a half-maximal effect (EC50) in test [1] was 3 nM; in the test with human CD3 on T cells [2] it was 65 nM; with human CD3 on T cells [3], 36 nM; with human GPC3 on cells, 2.8 nM. In test [4], this molecule yielded a Kd of 23.9 nM.

B2: GPC3×CD3 κλ003 (bispecific antibody, human IgG4 S228P, kappa, lambda)
light 1: DVVMTQSPLSLPVTPGEPASISCRSSQSIVHSNGNTYLEWYLKKPGQSPQLLIYKVSNRFSGVPDRFSGSGSGTDFTLKISRVEAEDVGVYFCLQVTHVPLTFGQGTKLEIKRTVAAPSVFIFPPSDKKLKSGTASVVCLLNNFYPREAKVQWKVDNALQSGNSQESVTEQDSKDSTYSLSSTLTLSKADYEKHKVYACEVTHQGLSSPVTKSFNRGEC
heavy 1: QVQLVQSGAEVKKPGSSVKVSCKASGYTFADYEIHWVREAPGQGLEWMGAIHPGSGGTAYAQKFQGRVTLTADESSTTAYMELSSLRSEDTAVYYCTRYYSFAYWGQGTLVTVSSASTKGPSVFPLAPCSRSTSESTAALGCLVEDYFPEPVTVSWNSGALTSGVHTFPAVLQSSGLYSLSSVVTVPSSSLGTKTYTCNVDHKPSNTKVDERVESKYGPPCPPCPAPEFEGGPSVFLFPPKPKDTLMISRTPEVTCVVVDVSQEDPEVQFNWYVDGVEVHNAKTKPREEQFNSTYRVVSVLTVLHQDWLNGKEYKCKVSNKGLASSIEKTISKAKGQPREPQVCTLPPSQEEMTKNQVSLSCAVKGFYPSDIAVEWESNGQPENNYKTTPPVLDSDGSFFLVSKLTVDKSRWQEGNVFSCSVMHEALHNHYTQKSLSLSLGK
light 2: QAVVTQEPSLTVSPGGTVTLTCRSSTGAVTTSNYANWVQEKPGQAPRGLIGGTNKRAPWTPARFSGSLLGGKAALTITGAQAEDEAEYYCVLWYSNLWVFGGGTKLTVLGQPKAAPSVTLFPPSSEELQANKATLVCLISDFYPGAVTVAWKADSSPVKAGVETTTPSKQSNNKYAASSYLSLTPEQWKSHRSYSCQVTHEGSTVEKTVAPTECS
heavy 2: EVQLVESGGGLVQPGGSLRLSCAASGFTFNTYAMNWVRKAPGKGLEWVGRIRSKYNNYATYYADSVKDRFTISRDDSKNSLYLQMNSLKTEDTAVYYCVRHGNFGNSYVSWFAYWGQGTLVTVSSASTKGPSVFPLAPCSRSTSESTAALGCLVKDYFPEPVTVSWNSGALTSGVHTFPAVLQSSGLYSLSSVVTVPSSSLGTKTYTCNVDHKPSNTKVDKRVESKYGPPCPPCPAPEFEGGPSVFLFPPKPKDTLMISRTPEVTCVVVDVSQEDPEVQFNWYVDGVEVHNAKTKPREEQFNSTYRVVSVLTVLHQDWLNGKEYKCKVSNKGLASSIEKTISKAKGQPREPQVYTLPPCQEEMTKNQVSLWCLVKGFYPSDIAVEWESNGQPENNYKTTPPVLDSDGSFFLYSKLTVDKSRWQEGNVFSCSVMHEALHNHYTQKSLSLSLGK
notes: also called GPC3 x CD3 κλ003; GPC3×CD3κλ bispecific antibody
Take B2: the binding result in test [5] is recorded as “no binding”. Further, the EC50 came to 3 nM in test [1], 56 nM in the test with human CD3 on T cells [2], 26 nM with human CD3 on T cells [3] and 2.9 nM with human GPC3 on cells. Besides, the Kd in test [4] is 17.8 nM.
